Assay results published in paper PMC7316485, “Secretion of Recombinant Interleukin-22 by Engineered Lactobacillus reuteri Reduces Fatty Liver Disease in a Mouse Model of Diet-Induced Obesity” (mSphere, 2020).

B1: murine interleukin-22 with C-terminal 3x FLAG tag, without signal peptide (IL-22:3X FLAG, pVPL31125) (natural protein, mouse, UniProt Q9JJY9 34-179, looked up)
chain: LPVNTRCKLEVSNFQQPYIVNRTFMLAKEASLADNNTDVRLIGEKLFRGVSAKDQCYLMKQVLNFTLEDVLLPQSDRFQPYMQEVVPFLTKLSNQLSSCHISGDDQNIQKNVRRLKETVKKLGESGEIKAIGELDLLFMSLRNACV
notes: also called mIL-22; source: L. reuteri VPL31125 (accumulates mIL-22 intracellularly), total lysate; not shown: 3x FLAG, C-terminal, kept
B2: murine interleukin-22 with C-terminal 3x FLAG tag, cleaved from the fusion with a Lactobacillus reuteri signal peptide (SP:IL-22:3X FLAG, pVPL3776) (natural protein, mouse, UniProt Q9JJY9 34-179, looked up)
chain: B1 chain
notes: the rest kept the signal peptide; also called mIL-22; mature mIL-22; source: L. reuteri VPL3778 (engineered to secrete mIL-22), protein precipitated from culture supernatant; not shown: 3x FLAG, C-terminal, kept

Molecular target: the molecule itself
Assay: migration on a gel, Western blot; FLAG-tagged mIL-22 from L. reuteri grown in LDM3 at 37°C to OD600 3.5; total lysate (VPL31125) or protein precipitated from culture supernatant (VPL3778); samples prepared as in ref. 14; gel conditions not told

Protein | stoichiometry N
B1 | 4
B2 | 4
